Measurements: US20130109846A1 (published 2013)
Numbering of substitutions follows the chain as printed. Numbers in names are those of the source.

B1: 1h-239-891 (other)
VL: DIQMTQSPSSLSASVGDRVTITCRASRPIWPFLEWYQQKPGKAPKLLIYFTSRLRHGVPSRFSGSGSGTDFTLTISSLQPEDFATYYCLQNVANPATFSQGTKVEIKR
B2: 1h-239-891(D70C) 30K linear PEG (other)
VL: B1 VL with D70C
modifications: 30 kDa linear PEG; engineered cysteine D70C
B3: 1h-239-891(D70C) 40K branched PEG (other)
VL: B1 VL with D70C
modifications: 40 kDa branched PEG; engineered cysteine D70C
B4: DOM21-20 (other)
VH: EVQLLESGGGLVQPGGSLRLSCAASGFTFPAYSMIWVRQAPGKGLEWVSTISPLGYSTYYADSVKGRFTISRDNSKNTLYLQMNSLRAEDTAVYYCAEQTAYLNRATEHFDYWGQGTLVTVSS
notes: VH dAb
B5: DOM21-28 (other)
VL: DIQMTQSPSSLSASVGDRVTITCRASQSISHSLVWYQQKPGKAPKLLIYWASLLQSGVPSRFSGSGSGTDFTLTISSLQPEDFATYYCQQGMTTPFTFGQGTKVEIKR
notes: VK dAb
B6: DOM21-27 (other)
VL: DIQMTQSPSSLSASVGDRVTITCRASQSIGTGLRWYQQKPGKAPMLLIYRASILQSGVPSRFSGSGSGTDFTLTISSLQPEDFATYYCQQTTLQPFTFSQGTKVEIKR
notes: VK dAb
B7: DOM21-38 (other)
VH: EVQLLESGGGLVQPGGSLRLSCAASGFTFILYDMQWVRQAPGKGLEWVSRISANGHDTYYADSVKGRFTISRDNSKNTLYLQMNSLRAEDTAVYYCAKGPHYLFDYWGQGTLVTVSS
notes: VH dAb
B8: DOM21-22 (other)
VH: EVQLLESGGGLVQPGGSLRLSCAASGFTFELYQMGWVRQAPGKGLEWVSTIMPSGNLTYYADSVKGRFTISRDNSKNTLYLQMNSLRAEDTAVYYCAKMWSLNLGFHAAFDYWGQGTLVTVSS
notes: VH dAb
B9: DOM21-44 (other)
VH: EVQLLESGGGLVQPGGSLRLSCAASGFTFARYTMVWVRQAPGKGLEWVSAIHFDGRTTYYADSVKGRFTISRDNSKNTLYLQMNSLRAEDTAVYYCAKNEWASLKHFDYWGQGTLVTVSS
notes: VH dAb
B10: DOM21-18 (other)
VL: DIQMTQSPSSLSASVGDRVTITCRASQYIGTSLNWYQQKPGKAPKLLTYQASLLQSGVPSRFSGSGSGTDFTLTISSLQPEDFATYYCQQLALRPMTFGQGTKVEIKR
notes: VK dAb

molecular target: T1, human CD28 (human, UniProt P10747 19-220); experiment: cell-based or functional assay

DC-MLR Assay (EC50 nM) [nM] | Luciferase assay (EC50 nM) [nM] | Binder
0.5 | 0.2 | B1
1.2 |  | B2
2.3 |  | B3

molecular target: T1, human CD28; experiment: cell-based or functional assay; remark: another data set of the same source

IFNγ (EC50 nM), DC-driven MLR [nM] | IL-2 (EC50 nM), DC-driven MLR [nM] | TNFα (EC50 nM), DC-driven MLR [nM] | Binder
0.2 | 0.1 | 0.2 | B1
0.6 | 0.6 | 0.6 | B2
2.5 | 1.5 | 1.7 | B3

molecular target: T1, human CD28; experiment: cell-based or functional assay; remark: another data set of the same source

CD80 CHO (EC50 nM), T cell proliferation [nM] | CD86 CHO (EC50 nM), T cell proliferation [nM] | Binder
0.3 | 0.4 | B1
1 | 0.5 | B2
0.4 | 0.4 | B3

molecular target: T1, human CD28; experiment: cell-based or functional assay; remark: another data set of the same source

EC50 of T cell proliferation, Monocytes as APC | Binder
10 | B3

molecular target: T2, recombinant human CD28/Fc Chimera (human, UniProt P10747 19-152); experiment: BIAcore, CM5 chip coated with 12500 RU of CD28-Fc
T2 construct: bought from R&D Systems; Fc part of the bought chimera not given

binding result | Binder
binds | B4
binds | B5
binds | B6
binds | B7
binds | B8
binds | B9
binds | B10
